{"source": "the DeepSol protein solubility set", "test": "soluble on expression in E. coli; label from the status in PepcDB or PDB records", "data": [{"sequence": "GSHMASREQTMENILKAAKKKFGERGYEGTSIQEIAKEAKVNVAMASYYFNGKENLYYEVFKKYGLANELPNFLEKNQFNPINALREYLTVFTTHIKENPEIGTLAYEEIIKESARLEKIKPYFIGSFEQLKEILQEGEKQGVFHFFSINHTIHWITSIVLFPKFKKFIDGLVPRGSGGLVPRGSGDLVSRIISALTDKPNI", "values": [{"measurement": "soluble on expression in E. coli", "value": "soluble"}]}, {"sequence": "MGSDKIHHHHHHMWELDVSPTRFKAHFSLDPGVACLNHGMLGACPISVQQRQSTLRAQLERQPAAFVLRALPALLDTARNCLAEVIGADPQDLLLLPNVTTAMSAVLRSRIFAPGDQILTTDHAYLSCRNLLEFIARSTGAEVMVAPVKVPVQHPDAIVDAVLERVTARTRLAVLDHVTSPTAIVFPIARLVERLAALGIDTLVDGAHAPGMLPLDVIAIGAAYYAGDCHKWLCTPRGAGFLHVRRDRQDGLHPPVISRGYGDATPGRPRLHLEFDWLGTADPTALLCIPAAIDFLATLLPGGLPAVFARNHALVTQAAARLAQALPLARLAPDAMVGSMVAFQLPDAASDAPDDAAASLQRWLYDAHRIDVAVTPWPHRTNRTLRISAQVYNAAEDFMQLDAPLAQCLAPDDRQSNNQCRTTEVMR", "values": [{"measurement": "soluble on expression in E. coli", "value": "not soluble"}]}, {"sequence": "MGSDKIHHHHHHMSTNHGANLYSLSSKYGFSKEEFMDFSSNINPFGTSSLAKQYIVNNIDMVSMYPDPDYIDLKTSISNYCKCSIDNIVLGSGATELISSFIHTINPKQALLLSPAYSEYEKELSKINCSIEKYFAKEEDNFHINLENLIKTINAKDYDLVVICNPSNPTGFAFTKVEVREILKNTDSFLMIDETYVEFTDTDTYSCTQLVDDYSNLFVIRGTSKFFSTPGIRLGYGLISNTNVKNEINKNLDLWNINIIASKMGEIMFSDLDFISNTISLMNTERDYLLKELKNIKSLDIYNTKGNFILCKIKTKELTAKSLREQLLPQKIIIRDCCSFKGLDEYFFRVCILKPNENKLLISSLKSIFK", "values": [{"measurement": "soluble on expression in E. coli", "value": "not soluble"}]}, {"sequence": "MSLKAWQLENFGLDNLKQVELEKPEIAEDQILIKVNSVSLNYRDTAIVEGIYTPELLKFPFIPVSDASGIVVEIGSKVTKFKKGDRVTSHMFTKWLDGKPKSDEQSHALGATVDGGLSEYMVLNENAAVFSPETLTDNQSSTLPVAAFVNWFSLVEYGNIKAGDKVLVQGTGGVSIFAIQIASALGAEVIATSSSDEKLEKAKELGASKVINYKTHPDWEKEVQKLTNGKGVEHIVEVVGGSSIAKSIDALAFQGHIYVIGFLENMEANVNLFALLAKQARIQGVNLGHHRAFEDFNKALDQINIDPVIDTVYSFDQAKEAYEHQMKGAFGKIVIDFNEGHHHHHH", "values": [{"measurement": "soluble on expression in E. coli", "value": "not soluble"}]}, {"sequence": "MAETFKIRKLEISDKRKGFIELLGQLTVTGSVTDEEFDRRFEEIRSYGDDHVICVIEEETSGKIAATGSVMIEKKFLRNCGKAGHIEDVVVDSRFRGKQLGKKVVEFLMDHCKSMGCYKVILDCSVENKVFYEKCGMSNKSIQMSKYFD", "values": [{"measurement": "soluble on expression in E. coli", "value": "soluble"}]}, {"sequence": "MGSDKIHHHHHHMSKVFIVGAAGNVGRRLTQQLAQRGHTLMAMHRHPDQADAIQAAGGVSVLGDITQISATDLATLMSGNDAIVFSAGAGGKGIQLTNDVDGKGLELAVEAAQLAGIQRFILVSVFPDALRGGSVSASFENYMLVKKHADVHLVSTDLDWVILRPGTLLDEVGTGKVNAAVAIPYGSVSRDDVAATLVELIEQPKVNRIIIELTQGEIPINDAISRLVAQ", "values": [{"measurement": "soluble on expression in E. coli", "value": "not soluble"}]}, {"sequence": "MSLQTAAAPTPAPVAAAPALPQGQVNIAVGSLKCKAEKCYGGLGEGIGDALTTALLNTGKFAVYERENTAQLTEEAFLNGGATFQGADVLIFGAITQYEPQASSGGLSFMGVSVGKKSSTIAMDLRIVDAKTRRIIGATQVQGKAEGNNFNVSGLLPVNVGAQSSPQLEAAISQMLNNAAQQLLLKVPASYYKEEGHHHHHH", "values": [{"measurement": "soluble on expression in E. coli", "value": "soluble"}]}, {"sequence": "MGSDKIHHHHHHMKYKIHWLYKTKRGLQTDLTTDYMNIEEVLQFAEDFEKTGRVKELLFYDEMDAEWSLKEMKKLSKQVEDEPQEILVYFDGGYDVQTKEAGVGICVYYKKGNKNYRIRRNAYIEGIYDNNEAEYASLLYSMNILEELGIKYEAVTLRGDSQVVLQQLAGEWPCYDEHLNHYLDQIEQKAKQMKLKLVCEPISRKQNKEAHQLATQALEGTVIDSHKEITE", "values": [{"measurement": "soluble on expression in E. coli", "value": "not soluble"}]}, {"sequence": "MGHHHHHHSHMAAAVAMETDDAGNRLRFQLELEFVQCLANPNYLNFLAQRGYFKDKAFVNYLKYLLYWKDPEYAKYLKYPQCLHMLELLQYEHFRKELVNAQCAKFIDEQQILHWQHYSRKRMRLQQALAEQQQQNNTSGK", "values": [{"measurement": "soluble on expression in E. coli", "value": "soluble"}]}]}
